T1: human SIGLEC11 on CHO-S-hSIGLEC11 cells (human, UniProt Q96RL6 104-561)
T1 sequence: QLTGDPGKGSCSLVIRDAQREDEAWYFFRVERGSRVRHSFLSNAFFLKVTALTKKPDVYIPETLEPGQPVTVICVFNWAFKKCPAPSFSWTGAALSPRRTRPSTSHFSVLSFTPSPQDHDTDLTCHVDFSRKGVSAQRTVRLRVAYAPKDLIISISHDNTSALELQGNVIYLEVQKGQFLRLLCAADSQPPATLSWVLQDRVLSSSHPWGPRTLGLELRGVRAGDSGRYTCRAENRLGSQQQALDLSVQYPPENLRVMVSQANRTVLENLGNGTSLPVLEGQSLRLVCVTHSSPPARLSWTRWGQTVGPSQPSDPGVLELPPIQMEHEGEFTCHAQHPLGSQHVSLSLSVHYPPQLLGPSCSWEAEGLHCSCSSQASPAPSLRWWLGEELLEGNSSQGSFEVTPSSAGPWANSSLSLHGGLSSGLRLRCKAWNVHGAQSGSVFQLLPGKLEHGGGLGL

T2: human SIGLEC14 on CHO-S-hSIGLEC14 cells (human, UniProt Q08ET2 17-358)
T2 sequence: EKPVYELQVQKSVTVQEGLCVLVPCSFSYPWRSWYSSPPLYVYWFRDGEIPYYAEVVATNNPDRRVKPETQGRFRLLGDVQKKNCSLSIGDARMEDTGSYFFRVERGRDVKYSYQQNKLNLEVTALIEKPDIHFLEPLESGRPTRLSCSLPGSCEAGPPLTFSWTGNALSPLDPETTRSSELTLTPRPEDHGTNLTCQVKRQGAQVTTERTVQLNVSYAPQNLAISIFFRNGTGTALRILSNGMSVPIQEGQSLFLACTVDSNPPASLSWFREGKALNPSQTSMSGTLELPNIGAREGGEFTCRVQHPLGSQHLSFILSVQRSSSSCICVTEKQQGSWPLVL

T3: human SIGLEC4 on CHO-S-hSIGLEC4 cells (human, UniProt P20916 20-516)
T3 sequence: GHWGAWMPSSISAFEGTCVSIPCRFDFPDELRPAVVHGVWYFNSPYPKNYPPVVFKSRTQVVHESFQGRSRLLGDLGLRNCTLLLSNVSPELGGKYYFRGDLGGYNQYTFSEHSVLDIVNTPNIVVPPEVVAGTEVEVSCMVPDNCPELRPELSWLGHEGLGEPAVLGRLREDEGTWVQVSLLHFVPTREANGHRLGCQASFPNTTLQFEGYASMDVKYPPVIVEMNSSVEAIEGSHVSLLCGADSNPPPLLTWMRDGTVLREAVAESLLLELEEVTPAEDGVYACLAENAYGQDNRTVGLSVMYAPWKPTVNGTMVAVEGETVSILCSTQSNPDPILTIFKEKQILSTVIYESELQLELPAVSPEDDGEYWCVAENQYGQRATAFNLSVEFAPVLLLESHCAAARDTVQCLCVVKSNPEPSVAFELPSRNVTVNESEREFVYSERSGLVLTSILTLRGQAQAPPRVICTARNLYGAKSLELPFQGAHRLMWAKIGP

B1: anti-SIGLEC15 antibody 10A7 (antibody, human IgG1, V domains shown)
VH: EVQLVQSGGGLVQPGGSLRLSCAASGFTFSNYEMNWVRQAPGKGLEWISYISNSGSTIYYADSVKGRFTISRDDAKNSLYLQMNSLRAEDTAVYYCAREDYDSSGYYWFDPWGQGTPVTVSS
VL: DIQLTQSPSSVSASVGDRVTITCRASQGISSWLAWYQQKPGKAPKLLIYAASSLQSGVPSRFSGSGSGTDFTLTINSLQPEDFATYYCQQTNSFPLTFGGGTKVEIK
B2: anti-SIGLEC15 antibody 23F4 (antibody, human IgG1, V domains shown)
VH: QVQLQQWGAGLLKPSETLSLTCAVYGGSFSGYFWSWIRQPPGKGLEWIGEINHSGSTNYNPSLKSRVTLSVDTSKNQFSLKLSSVTAADTAVYYCAREGDSSSWGNWFDPWGQGTLVTVSS
VL: EIVLTQSPGTLSLSPGERATLSCRASQSVSSSYLAWYQQKPGQAPRFLIYGASSRATGIPDRFSGSGSGTDFTLTISRLEPEDFAVYYCQQFGNSPLTFGGGTKVEIK
B3: anti-SIGLEC15 antibody 10C9 (antibody, human IgG1, V domains shown)
VH: QVQLVQSGAEVKKPGATVKVSCKASGYTFTNYGFSWVRQAPGQGLEWMGWINTYNDNTNYAQKFQGRVTMTTDTSTSTAYMELRSLRSDDTAVYYCARDGLWFGELPHYFDYWGQGTLVTVSS
VL: DIQLTQSPLSSPVTLGQPASISCRSSQSLVNSDGETFLSWLQQRPGQPPRLLIYKISNRFSGVPDRFSGSGAGTDFTLKISRVEAEDVGVYYCMQATQFPHTFGQGTKLEIK

Biological target: human SIGLEC12 on CHO-S-hSIGLEC12 cells (human, UniProt Q96PQ1 19-481)
Test: flow cytometry, CHO-S cells expressing the target; on Percentage of Positive Cells: test concentration or dose not given here
Method: (§1) CHO-S-hSIGLEC15 cells, CHO-S-mSIGLEC15 cells, CHO-S-fasSIGLEC15 cells or CHO-S-dSIGLEC15 cells were transferred to a 96-well plate at a density of 5×10⁴ cells/well respectively. Serially diluted sample anti-SIGLEC15 antibodies were added to the 96-well plate, and incubated at 4° C. for 30 min. Then, the cells were incubated with the secondary antibody anti-hIgG-Fc-Alex Flour 647 (RL1-H) (Jackson ImmunoResearch Laboratories, Inc., 109-606-170) at 4° C. in the dark for 15 minutes before flow cytometry analysis.
(§2) Another similar experiment was performed to determine whether the anti-SIGLEC15 antibodies can bind with other SIGLEC family proteins. CHO-S-hSIGLEC1 cells (expressing hSIGLEC1, SEQ ID NO: 49)), CHO-S-hSIGLEC2 cells (expressing hSIGLEC2, SEQ ID NO: 50), CHO-S-hSIGLEC4 cells (expressing hSIGLEC4, SEQ ID NO: 51), CHO-S-hSIGLEC5 cells (expressing hSIGLEC5, SEQ ID NO: 52), CHO-S-hSIGLEC6 cells (expressing hSIGLEC6, SEQ ID NO: 53), CHO-S-hSIGLEC7 cells (expressing hSIGLEC7, SEQ ID NO: 54), CHO-S-hSIGLEC8 cells (expressing hSIGLEC8, SEQ ID NO: 55), CHO-S-hSIGLEC9 cells (expressing hSIGLEC9, SEQ ID NO: 56), CHO-S-hSIGLEC10 cells (expressing hSIGLEC10, SEQ ID NO: 57), CHO-S-hSIGLEC11 cells (expressing hSIGLEC11, SEQ ID NO: 58), CHO-S-hSIGLEC12 cells (expressing hSIGLEC12, SEQ ID NO: 59), CHO-S-hSIGLEC14 cells (expressing hSIGLEC14, SEQ ID NO: 60) or CHO-S-hSIGLEC16 cells (expressing hSIGLEC16, SEQ ID NO: 61) were used.

human SIGLEC12 on CHO-S-hSIGLEC12 cells, sequence (Q96PQ1 19-481): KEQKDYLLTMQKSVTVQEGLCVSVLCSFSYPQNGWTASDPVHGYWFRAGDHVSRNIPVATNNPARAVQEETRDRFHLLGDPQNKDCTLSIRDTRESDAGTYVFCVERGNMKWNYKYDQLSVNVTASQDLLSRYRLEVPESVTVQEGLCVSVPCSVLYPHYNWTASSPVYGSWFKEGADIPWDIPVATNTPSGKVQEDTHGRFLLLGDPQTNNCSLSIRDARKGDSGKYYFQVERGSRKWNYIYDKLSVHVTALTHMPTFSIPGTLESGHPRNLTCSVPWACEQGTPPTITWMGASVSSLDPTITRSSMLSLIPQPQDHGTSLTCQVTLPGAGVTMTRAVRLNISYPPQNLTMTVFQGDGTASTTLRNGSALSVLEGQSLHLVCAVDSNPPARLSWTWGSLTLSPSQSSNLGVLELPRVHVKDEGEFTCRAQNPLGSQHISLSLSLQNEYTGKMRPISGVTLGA

Percentage of Positive Cells | binding result | Binder
0% | no binding | B1
0.4% | no binding | B2
0.1% | no binding | B3

Biological target: T1, human SIGLEC11 on CHO-S-hSIGLEC11 cells
Test: flow cytometry, CHO-S cells expressing the target; on Percentage of Positive Cells: test concentration or dose not given here
Method: as §1, §2

Percentage of Positive Cells | binding result | Binder
0.1% | no binding | B1
0.2% | no binding | B2
0.1% | no binding | B3

Biological target: human SIGLEC8 on CHO-S-hSIGLEC8 cells (human, UniProt Q9NYZ4 17-363)
Test: flow cytometry, CHO-S cells expressing the target; on Percentage of Positive Cells: test concentration or dose not given here
Method: as §1, §2

human SIGLEC8 on CHO-S-hSIGLEC8 cells, sequence (Q9NYZ4 17-363): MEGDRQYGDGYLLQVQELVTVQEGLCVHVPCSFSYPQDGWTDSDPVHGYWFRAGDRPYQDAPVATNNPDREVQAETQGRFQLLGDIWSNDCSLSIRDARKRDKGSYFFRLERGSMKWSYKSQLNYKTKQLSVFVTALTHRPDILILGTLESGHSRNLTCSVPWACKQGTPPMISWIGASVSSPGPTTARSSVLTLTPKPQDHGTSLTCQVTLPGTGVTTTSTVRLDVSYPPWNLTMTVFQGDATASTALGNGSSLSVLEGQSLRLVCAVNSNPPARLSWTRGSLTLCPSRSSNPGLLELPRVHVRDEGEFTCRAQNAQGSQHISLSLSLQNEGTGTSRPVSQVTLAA

Percentage of Positive Cells | binding result | Binder
0.1% | no binding | B1
0.6% | no binding | B2
0.3% | no binding | B3

Biological target: T2, human SIGLEC14 on CHO-S-hSIGLEC14 cells
Test: flow cytometry, CHO-S cells expressing the target; on Percentage of Positive Cells: test concentration or dose not given here
Method: as §1, §2

Percentage of Positive Cells | binding result | Binder
0.1% | no binding | B1
1.3% | no binding | B2
0.2% | no binding | B3

Biological target: T3, human SIGLEC4 on CHO-S-hSIGLEC4 cells
Test: flow cytometry, CHO-S cells expressing the target; on Percentage of Positive Cells: test concentration or dose not given here
Method: as §1, §2

Percentage of Positive Cells | binding result | Binder
1.1% | no binding | B1
0.8% | no binding | B2
1.2% | no binding | B3

From patent US20250361296A1 (BIOCYTOGEN PHARMACEUTICALS BEIJING, published 2025)
